Experimental data as given in patent US20150118233A1 (Ablynx, published 2015).
Positions count from the first letter of the chain named.

B1: NC41v17 (VHH)
VHH: EVQLLESGGGLVQPGGSLRLSCAASGGSLSNYVLGWFRQAPGKGREFVAAINWRGDITIGPPNVEGRFTISRDNSKNTLYLQMNSLRPEDTAVYYCGAGTPLNPGAYIYDWSYDYWGQGTLVTVSS
B2: NC41v06 (VHH)
VHH: B1 VHH with G55D, S75A
B3: Nanobody NC41 (VHH)
VHH: EVQLVESGGGLVQAGGSLSISCAASGGSLSNYVLGWFRQAPGKEREFVAAINWRGDITIGPPNVEGRFTISRDNAKNTGYLQMNSLAPDDTAVYYCGAGTPLNPGAYIYDWSYDYWGRGTQVTVSS
B4: Nanobody 7B2 (VHH)
VHH: EVQLVESGGGLVQAGDSLRLSCAASGRTFSSYAMGWFRQAPGKEREFVAAISWSDGSTYYADSVKGRFTISRDNAKNTVYLQMNSLKPEDTAVYYCAADLTSTNPGSYIYIWAYDYWGQGTQVTVSS
B5: Nanobody 191E4 (VHH)
VHH: EVQLVESGGGLVQAGGSLRLSCAASGPTFSADTMGWFRQAPGKEREFVATIPWSGGIAYYSDSVKGRFTMSRDNAKNTVDLQMNSLKPEDTALYYCAGSSRIYIYSDSLSERSYDYWGQGTQVTVSS
B6: Nanobody 15H8 (VHH)
VHH: EVQLVESGGGLVQAGGSLRLSCAASGRSFSNYVLGWFRQAPGKEREFVAAISFRGDSAIGAPSVEGRFTISRDNAKNTGYLQMNSLVPDDTAVYYCGAGTPLNPGAYIYDWSYDYWGRGTQVTVSS
B7: Nanobody 15B3 (VHH)
VHH: EVQLVESGGGLVQPGGSLRLSCAASGLTLDYYALGWFRQAPGKEREGVSCISSSDHSTTYTDSVKGRFTISWDNAKNTLYLQMNSLKPGDTAVYYCAADPALGCYSGSYYPRYDYWGQGTQVTVSS
B8: Nanobody 191D3 (VHH)
VHH: EVQLVESGGGLVQAGGSLRLSCEASGRTYSRYGMGWFRQAPGKEREFVAAVSRLSGPRTVYADSVKGRFTISRDNAENTVYLQMNSLKPEDTAVYTCAAELTNRNSGAYYYAWAYDYWGQGTQVTVSS
B9: Nanobody 1E4 (VHH)
VHH: B8 VHH with Y29F, R31S, S106P, A112T
B10: Nanobody NC23 (VHH)
VHH: EVQLVESGGGLVQPGGSLRLSCAASGRTFSSIAMGWFRQAPGKEREFVAAISWSRGRTFYADSVKGRFIISRDDAANTAYLQMNSLKPEDTAVYYCAVDTASWNSGSFIYDWAYDHWGQGTQVTVSS

Target: F protein of hRSV strain Long (hRSV strain Long)
Experiment: cell-based or functional assay

Binder | Neutralization IC50 (first assay) | Neutralization IC50 (second assay)
B1 | 249 nM | 149 nM

Target: F protein of hRSV strain B-1 (hRSV strain B-1)
Experiment: cell-based or functional assay

Binder | Neutralization IC50 (first assay) | Neutralization IC50 (second assay)
B2 | 806 nM | –
B1 | 677 nM | 346 nM
B3 | 4710 nM | 3290 nM

Target: F protein of hRSV strain B-1 (hRSV strain B-1)
Experiment: cell-based or functional assay
Remark: another data set of the same source

Binder | RSV neutralization IC50
B4 | 2690 nM
B5 | 4330 nM
B6 | 2340 nM
B3 | 4000 nM
B7 | 1270 nM

Target: F protein of hRSV strain A-2 (hRSV strain A-2)
Experiment: cell-based or functional assay

Binder | RSV neutralization IC50
B4 | 177 nM
B8 | 227 nM
B9 | 298 nM
B6 | 218 nM
B3 | 26 nM
B10 | 109 nM
